Source: patent US20260027179A1, “ANTI-SYNUCLEINOPATHY PEPTIDE AND METHODS TO TREAT NEURODEGENERATIVE DISEASES” (University of British Columbia, priority 2021, published 2026)

Experiments:
endogenous α-synuclein = target: T1, endogenous α-synuclein (Rattus norvegicus, UniProt P37377); assay: Knockdown of endogenous α-synuclein in primary cortical neuron cultures, immunoblot; format: cell-based
T1 construct: endogenous in cells; host or cells: primary rat cortical neurons (14 DIV) and primary rat ventral midbrain neurons (3 DIV)
Description: Primary rat neuron cultures were prepared from embryos of pregnant Sprague-Dawley rats (E18). The experimental protocol was approved by the University of British Columbia Animal Care Committee. Briefly, the cortical tissue or ventral midbrain tissue was isolated into ice cold HBSS (Invitrogen, 14170-112) and then digested with 0.25% trypsin-EDTA at 37° C. for 30 min. After washing with warm DMEM (supplemented with 10% FBS) three times, neurons were suspended in neuron culture media and dissociated by trituration using varying sizes of pipettes. Neurons were then centrifuged, and the pellet was re-suspended in culture media, washed twice with culture media, and plated on the poly-D-lysine-coated plates. Neuron culture was maintained in the 37° C. incubator with […] and 5% CO2. The morning after culturing, 2/3 of the neuron culture media was replaced with fresh neuron culture media. Media was then replaced every 3-4 days. Primary rat cortical neuron culture was used 14 days in vitro (DIV) and primary rat ventral midbrain neuron culture was used 3 DIV.
Tat-βsyn-degron and Tat-βsyn peptides were first dissolved in sterile water as a 25 mM stock solution and then diluted directly in the neurobasal culture media to make the desired working concentration. 20 mM MPP+iodide stock solution was made freshly each time and diluted in the neurobasal culture media directly to make the desired working concentration. For 48 hrs treatment, neuron culture media containing MPP+ and peptides were replaced every 24 hrs.
Brain tissues or cultured cells were lysed on ice in the lysis buffer and then the solution was centrifuged at 14,000 rpm for 10 min at 4° C. Next, the supernatant was collected and protein concentrations were determined using a BCA protein assay kit (Thermo Scientific, 23227). Equal amount of protein samples was mixed with 4× sample buffer, boiled at 100° C. for 5 min, and separated on 10% sodium dodecyl sulphate-polyacrylamide gel electrophoresis (SDS-PAGE). Proteins were then transferred to Immobilon-PTM polyvinylidene fluoride (PVDF) membranes (Bio-Rad, 162-0177). The membranes were blocked with 5% non-fat milk in Tris-buffered saline containing 0.1% Tween-20 (TBST) for 1 hr at room temperature, and then incubated overnight at 4° C. with primary antibody. After washing 3×5 min in TBST, membranes were incubated with horseradish peroxidase-conjugated secondary antibody for 1 hr at room temperature. After another three washes with TBST, protein was visualized in the Bio-Rad Imager using ECL western blotting substrate (Pierce, 32016). The band density of each protein was quantified by the Bio-Rad Quantity One software and the relative optical density was analyzed relative to the loading control β-actin on the same membrane.

[1] = target: T2, phosphorylated (pS129) α-synuclein (Homo sapiens, UniProt P37840, A53T); assay: PFF mouse model of spreading synucleinopathy, pS129 α-synuclein immunostaining; format: in vivo; conditions: PFF-injected M83 mice, 40 mg/kg i.p. over 20 days, at three months, vs Tat-βsyn group
T2 construct: tissue The Jackson Laboratory 004479; host or cells: coronal brain sections (substantia nigra, pons) of M83 mice injected with human α-synuclein PFFs
Description: M83 mice were injected intracerebrally (i.e.) into the right dorsal striatum with either 12.5 μg of α-synuclein pre-formed fibrils (PFFs) or PBS. Starting at 3 days prior to the PFF injection, mice were treated daily for 12 days with either Tat-βsyn or Tat-βsyn-degron peptide (40 mg/kg; i.p.) and once every other day for the subsequent 8 days (20 days in total, FIG. 5a). At the end of three months, coronal brain sections of the M83 mice were prepared and stained with antibodies against serine 129-phosphorylated α-synuclein (pS129syn), a marker of pathogenic synuclein aggregates, and Iba-1, a calcium-binding protein specifically expressed in macrophage and microglia as a marker of neuroinflammation.
PFFs were generated in-house based on the Volpicelli-Daley et al protocol. […] PFFs were characterized using a negative staining protocol and analyzed using an electron microscope. […] PFFs were visualized using a transmission electron microscope (FEI Tecnai 12 Bio Twin 120 kV TEM) coupled to a AMT XR80C CCD camera, and analyzed with ImageJ 1.5 and Matlab 2017b software. […]
Brains from M83 mice that received i.e. and i.p. injections were processed for immunohistochemistry. […] Coronal sections were analyzed using Fiji-ImageJ 1.5 software to detect the total area labeled with the peroxidase immunoreaction product. The results were analyzed using GraphPad Prism software.

For “YGRKKRRQRRRRTKSGVYLVGRRRG (The sequence is synthesized (YGRKKRRQRRRRTKSGVYLVGRRRG)) [Tat-βsyn-degron]”, the “time course of knockdown of endogenous α-synuclein” value (endogenous α-synuclein; 50 μM bath application, primary cortical cultures) was “induced a time-dependent knockdown of endogenous α-synuclein”, the “endogenous α-synuclein protein levels” value (endogenous α-synuclein; bath application 24 hrs, 5-50 μM (control 50 μM), cortical neuron cultures) was “robust reduction of endogenous α-synuclein protein levels in a dose-dependent manner” and the “pS129syn staining in pons” value [1] was “significantly reduced”. The “pS129syn staining in substantia nigra pars compacta” value [1] was “significantly reduced”.
